Eleven molecules from US20210079080A1 (Hoffmann-La Roche, published 2021) can be followed below.

Changes are numbered by the printed parent chain.

The labels stand for the following.
T1: VEGF-121-His (inhouse production) (human, UniProt P15692 207-395)
T1 construct: His-tagged human VEGF-A121 used in the ELISAs and (captured by an anti-His antibody) in SPR; also called hVEGF-A121; his VEGF; not shown: His tag
T1 sequence: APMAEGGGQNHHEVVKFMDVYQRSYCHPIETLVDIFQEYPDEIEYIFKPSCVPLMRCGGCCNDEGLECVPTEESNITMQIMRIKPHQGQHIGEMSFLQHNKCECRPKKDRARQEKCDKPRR

T2: human VEGF-A121 (human, UniProt P15692 207-395)
T2 sequence: T1 sequence

B1: VEGF-0113 Fab fragment (Fab, V domains shown)
VH: EVQLVESGGGLVQPGGSLRLSCAASGFTFTNYAMTWVRQAPGKGLEWVSSIGNGPGIYTYYADSVKGRFTISRDNSKNTLYLQMNSLRAEDTAVYYCAKGDNLFDSWGPGTLVTVSS
VL: DIQMTQSPASLSASVGDRVTITCRASQSIYSSLNWYQQKPGKAPKLLIYASTLQSGVPSRFSGSASGTDFTLTISSLQPEDVATYYCQQYQNFPRTFGQGTKLEIKR
notes: Variant of VEGF-0089 (G to P at position 6 of H-CDR2); Fab with rabbit derived CLkappa and CH1
B2: VEGF-0114 Fab fragment (Fab, V domains shown)
VH: EVQLVESGGGLVQPGGSLRLSCAASGFTFTNYAMTWVRQAPGKGLEWVSSIGSGGFYTYYADSVKGRFTISRDNSKNTLYLQMNSLRAEDTAVYYCAKGDNLFDSWGPGTLVTVSS
VL: B1 VL
notes: Fab with rabbit derived CLkappa and CH1; also called VEGR-0114 Fab
B3: VEGF-P1AD8675 Fab fragment (Fab, V domains shown)
VH: B1 VH with P55G, S76W
VL: B1 VL
B4: VEGF-P1AE3520 Fab fragment (Fab, V domains shown)
VH: B1 VH with S76W
VL: B1 VL
B5: VEGF-P1AE3521 Fab fragment (Fab, V domains shown)
VH: B2 VH with S75W
VL: B1 VL
B6: HF2-11 Fab fragment (Fab, V domains shown)
VH: EVQLVESGGGLVQPGGSLRLSCAASGFLIRSHGMQWVRQAPGKGLEYVAGISSDGSWVKVAAAVEGRFTISRDDSKNTAYLQMNSLRAEDTAVYYCARDFSTGYGADSIDAWGQGTLVTVSS
VL: DIQMTQSPSSLSASVGDRVTITCSGGSSEPLGYGWYQQKPGKAPKTLIYWDDKRPSGVPSRFSGSRSGTDFTLTISSLQPEDFATYYCGAWEYSGGVGIFGQGTKVEIKR
notes: Prior art antibody disclosed in EP3006465
B7: HF2-9 Fab fragment (Fab, V domains shown)
VH: B6 VH with G26M, L28R, V58F, K59R
VL: B6 VL with S28M
notes: as for B6
B8: L3H6 Fab fragment (Fab, V domains shown)
VH: QVQLVQSGAEVKKPGESLKISCKGSGYSFTSYWIGWVRQMPGKGLEWMGIIYPGDSDTRYSPSFQGQVTISADKSISTAYLQWSSLKASDTAMYYCARQGTHNRKIWGQGTMVTVSS
VL: QAVVTQEPSLTVSPGGTVTLTCASSTGAVTSGNYPNWFQQRPGQPPRALIYSTSNKHSWTPARFSGSLLGGKAALTLSGAQPEDEAEYYCRLSYDLARPVFGGGTKLTVLG
notes: Prior art antibody disclosed in WO 2012089176, made here as Fab
B9: HF2-1 Fab fragment (Fab, V domains shown)
VH: B6 VH with G26N, L28V, I29F, V58T, K59G, V60Y, A61G
VL: B6 VL with S28D, E29S, P30A, L31Y
notes: as for B6
B10: r84 full length IgG1 antibody (antibody, V domains shown)
VH: QVQLVQSGAEVKKPGASVKVSCKASGGTFSSYAISWVRQAPGQGLEWMGGFDPEDGETIYAQKFQGRVTMTEDTSTDTAYMELSSLRSEDTAVYYCATGRSMVRGVIIPFNGMDVWGQGTTVTVSS
VL: not shown
notes: Full length IgG1; also called r84 IgG1
B11: r84 Fab fragment (Fab, V domains shown)
VH: B10 VH
VL: not shown
notes: Prior art antibody disclosed in WO 2009060198, made here as Fab

One assay concerns the target T1, VEGF-121-His (inhouse production). The assay is described as follows: Biacore, Fab stressed 4 w/37° C./pH 7.4. The protocol: (§1) Antibody samples were formulated in 20 mM His/HisCl, 140 mM NaCl, pH 6.0, and were split into three aliquots: one aliquot was re-buffered into PBS, respectively, and two aliquots were kept in the original formulation. The PBS aliquot and one His/HisCl aliquot were incubated for 2 weeks (2 w) at 40° C. (His/NaCl) or 37° C. (PBS) in 1 mg/ml, the PBS sample was incubated further for total 4 weeks (4 w). The third control aliquot sample was stored at −80° C.
Take B1: the “VEGF-binding activity after stress (relative active concentration, normalized to unstressed aliquot)” value was determined as 101.

For the molecule B2, the “VEGF-binding activity after stress (relative active concentration, normalized to unstressed aliquot)” value worked out at 99.

Consider B3, for which the “VEGF-binding activity after stress (relative active concentration, normalized to unstressed aliquot)” value stood at 109.

As for B4, the “VEGF-binding activity after stress (relative active concentration, normalized to unstressed aliquot)” value turned out to be 101.

In the case of B5, the “VEGF-binding activity after stress (relative active concentration, normalized to unstressed aliquot)” value was 99.

The target is the same in another assay. The assay is described as follows: inhibition ELISA: antibody titrated against 0.7 nM VEGF-121-His; blocked partner plate-bound biotinylated VEGF-R1; anti-His POD readout.
On to B6, for which the “IC50 (read off the curve)” value was roughly 1000 pM.

For the molecule B7, the “IC50 (read off the curve)” value was roughly 700 pM.

In the next assay the target is T2, human VEGF-A121. Description: cell-based or functional assay.
On to B1, for which the “IC50 in reporter gene assay (HEK293-NFAT-RE-Luc2P/KDR cells, luminescence, 25 ng/ml VEGF-A121)” value came to 630 pM.

Consider B2, for which the “IC50 in reporter gene assay (HEK293-NFAT-RE-Luc2P/KDR cells, luminescence, 25 ng/ml VEGF-A121)” value came out at 1340 pM.

Another assay addresses T1, VEGF-121-His (inhouse production). Description: SPR (Biacore), hVEGF-A121 captured by anti-His antibody, Fab injected, 25° C. The protocol:
(§2) The surface was regenerated by injecting 10 mM Glycine pH 1.5 for 60s. […] Rate constants were calculated using the Langmuir 1:1 binding model within the Biacore® Evaluation software.
(§3) The affinity of the antibodies was determined by SPR using the same methods as described in Example 2. All Fab fragments as listed in table 1 and table 2 were tested.
Regarding B1, the Kd came to 21 pM.

In turn, B2 came in with a Kd of 55 pM.

Turning to B8, the Kd was determined as 3360 pM.

The next assay has the same target. The assay is described as above. The source holds these as a separate data set. The protocol:
as §2
(§4) The affinity of the antibodies was determined by SPR using the same methods as described in Example 2. All Fab fragments of antibodies of the invention as listed in table 1 and table 5 were tested.
B1 showed a dissociation constant Kd of 22 pM.

With B2, binding was put at a Kd of 50 pM.

As for B3, the dissociation constant Kd is 88 pM.

In the case of B4, the Kd was 31 pM.

B5 displayed a Kd of 32 pM.

In turn, B9 registered a dissociation constant (Kd) of 279 pM.

B6 gave a Kd of 32 pM.

B7 showed a Kd of 24 pM.

The next assay has the same target. The assay is described as follows: SPR (Biacore), hVEGF-A121 captured by anti-His antibody, Fab injected, 37° C. The method, then: as §2, §4
The molecule B1 showed a Kd of 29 pM.

As to B2, the Kd turned out to be 54 pM.

B3 displayed a Kd of 65 pM.

B4: the dissociation constant (Kd) was 39 pM.

As to B5, the dissociation constant (Kd) was 61 pM.

Molecule B9 came in with a Kd of 574 pM.

With B6, the dissociation constant (Kd) stood at 62 pM.

Molecule B7 gave a Kd of 51 pM.

The next assay has the same target. Description: Biacore, Fab stressed 2 w/40° C./pH 6.0. The method, then: as §1
Take B1: the “VEGF-binding activity after stress (relative active concentration, normalized to unstressed aliquot)” value was 103.

Regarding B2, the “VEGF-binding activity after stress (relative active concentration, normalized to unstressed aliquot)” value was determined as 99.

Take B3: the “VEGF-binding activity after stress (relative active concentration, normalized to unstressed aliquot)” value came out at 101.

For the molecule B4, the “VEGF-binding activity after stress (relative active concentration, normalized to unstressed aliquot)” value worked out at 100.

For the molecule B5, the “VEGF-binding activity after stress (relative active concentration, normalized to unstressed aliquot)” value was determined as 101.

The target is the same in the next assay. The assay is described as follows: SPR (Biacore), hVEGF-A121 captured by anti-His antibody, Fab injected, 37° C. The source holds these as a separate data set. The method, then: as §2, §3
B1 had a Kd of 17 pM.

On to B2, for which the Kd worked out at 56 pM.

B8 showed a dissociation constant Kd of 4520 pM.

For a further assay the target is unchanged. The assay is described as follows: inhibition ELISA: antibody titrated against 0.7 nM VEGF-121-His; blocked partner plate-bound biotinylated VEGF-R2; anti-His POD readout. The method, then:
Plates were incubated for 1 h at room temperature. […] Plates were incubated for 1 h at room temperature. […] After washing 3 times with 90 μl/well PB ST-buffer, 25 μl/well detection antibody (anti His POD, Bethyl, #A190-114P, 1:12000) in 1×OSEP was added. After incubation for 1 h at room temperature plates were washed 3 times with 90 μl PBST-buffer. 25 μl TMB (Roche, #11 835 033 001) was added to all wells simultaneously. After 10 min incubation at room temperature, signals were detected at 370 nm/492 nm on a Tecan Safire 2 Reader.
For the molecule B1, the “IC50 (read off the curve)” value was roughly 2000 pM.

A further assay shares this target. Description: inhibition ELISA: antibody titrated against 0.4 nM VEGF-121-His; blocked partner plate-bound biotinylated VEGF-R2; anti-His POD readout.
Regarding B1, the “IC50 (read off the curve)” value is roughly 200 pM.

As to B2, the “IC50 (read off the curve)” value was roughly 300 pM.

Another assay has the same target. Description: direct ELISA on plate-coated VEGF-121-His. The method, then:
After washing 3 times with 90 μl/well PBST-buffer (bidest water, 10×PBS Roche #11666789001+0.1% Tween® 20) blocking buffer (bidest water, 10×PBS Roche #11666789001+2% Bovine Serum Albumin Fraction V, fatty acid free, Roche, #10735078001+0.05% Tween® 20) was added 90 μl/well and incubated for 1 h at room temperature. […] After incubation for 1 h at room temperature, plates were again washed 3 times with 90 μl/well PBST-buffer. […] After washing 3 times with 90 μl A PBST-buffer, 25 μl TMB (Roche, #11 835 033 001) was added to each well. After 3 min incubation at RT, signals were detected at 370 nm/492 nm on a Tecan Safire 2 Reader.
For B1, the “EC50 (read off the curve)” value was roughly 300 pM.

Consider B2, for which the concentration giving a half-maximal response (EC50 (read off the curve)) was roughly 300 pM.

Take B8: the “EC50 (read off the curve)” value was roughly 300 pM.

Take B10: the binding result is given as “binds”.

As to B11, the binding result is listed as “binds”.

For a further assay the target is unchanged. Description: Biacore, Fab stressed 2 w/37° C./pH 7.4. The method, then: as §1
Turning to B1, the “VEGF-binding activity after stress (relative active concentration, normalized to unstressed aliquot)” value turned out to be 103.

For B2, the “VEGF-binding activity after stress (relative active concentration, normalized to unstressed aliquot)” value was determined as 102.

Consider B3, for which the “VEGF-binding activity after stress (relative active concentration, normalized to unstressed aliquot)” value was 102.

As to B4, the “VEGF-binding activity after stress (relative active concentration, normalized to unstressed aliquot)” value was determined as 102.

On to B5, for which the “VEGF-binding activity after stress (relative active concentration, normalized to unstressed aliquot)” value was determined as 103.
